Where two headings read alike, the source gives them in different places.
T1: human IL31RA protein (Acrobiosystem, Cat:ILA-H5256) (human, UniProt Q8NI17 20-519, limits assumed)
T1 construct: Bought; loaded on protein A sensor tips; also called hIL-31RA; hIL31R
T1 sequence (looked up): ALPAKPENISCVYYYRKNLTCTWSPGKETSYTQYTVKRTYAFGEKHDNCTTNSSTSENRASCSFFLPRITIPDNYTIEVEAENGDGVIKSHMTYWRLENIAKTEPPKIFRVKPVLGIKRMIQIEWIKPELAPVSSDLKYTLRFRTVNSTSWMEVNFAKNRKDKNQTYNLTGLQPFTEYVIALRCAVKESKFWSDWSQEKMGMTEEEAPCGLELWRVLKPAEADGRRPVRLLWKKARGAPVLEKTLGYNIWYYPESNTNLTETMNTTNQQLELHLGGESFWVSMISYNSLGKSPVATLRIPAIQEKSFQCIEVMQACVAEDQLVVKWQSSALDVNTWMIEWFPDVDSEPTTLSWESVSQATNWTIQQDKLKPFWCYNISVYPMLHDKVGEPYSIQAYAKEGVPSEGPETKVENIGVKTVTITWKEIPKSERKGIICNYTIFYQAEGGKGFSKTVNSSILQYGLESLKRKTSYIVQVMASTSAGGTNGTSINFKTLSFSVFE

T2: Recombinant extra cellular domain of canine IL-31 receptor A (cECD-IL-31RA), His-tagged (canine)
T2 construct: also called cIL-31RA; cIL31r
T2 chain: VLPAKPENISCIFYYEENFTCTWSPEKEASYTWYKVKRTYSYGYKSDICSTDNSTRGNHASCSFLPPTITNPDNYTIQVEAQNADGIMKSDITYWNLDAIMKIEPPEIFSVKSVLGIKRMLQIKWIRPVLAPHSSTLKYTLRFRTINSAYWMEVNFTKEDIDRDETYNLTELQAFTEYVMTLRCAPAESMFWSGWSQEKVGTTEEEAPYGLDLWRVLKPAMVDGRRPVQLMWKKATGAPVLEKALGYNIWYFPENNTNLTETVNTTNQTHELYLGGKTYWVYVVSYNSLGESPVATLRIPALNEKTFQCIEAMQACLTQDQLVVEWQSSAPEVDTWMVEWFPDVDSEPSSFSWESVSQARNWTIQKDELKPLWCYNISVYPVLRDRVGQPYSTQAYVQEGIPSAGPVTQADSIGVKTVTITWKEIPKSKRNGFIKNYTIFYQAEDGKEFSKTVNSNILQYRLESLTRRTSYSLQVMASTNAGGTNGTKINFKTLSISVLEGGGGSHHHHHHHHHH


Experiments:
[1] = molecular target: T3, canine IL-31RA expressed on HEK-Blue STAT3 canine IL-31R reporter cells (with canine OSMR) (canine); experiment: cell-based or functional assay
[2] = molecular target: T3, canine IL-31RA expressed on HEK-Blue …; experiment: cell-based or functional assay; remark: listed apart in the source
[3] = molecular target: T3, canine IL-31RA expressed on HEK-Blue …; experiment: cell-based or functional assay; remark: listed apart in the source
[4] = molecular target: T3, canine IL-31RA expressed on HEK-Blue …; experiment: cell-based or functional assay; remark: listed apart in the source
[5] = molecular target: T3, canine IL-31RA expressed on HEK-Blue …; experiment: cell-based or functional assay; remark: listed apart in the source
[6] = molecular target: T3, canine IL-31RA expressed on HEK-Blue …; experiment: cell-based or functional assay; remark: listed apart in the source
[7] = molecular target: T3, canine IL-31RA expressed on HEK-Blue …; experiment: cell-based or functional assay; remark: listed apart in the source
[8] = molecular target: T3, canine IL-31RA expressed on HEK-Blue …; experiment: cell-based or functional assay; remark: listed apart in the source
[9] = molecular target: T3, canine IL-31RA expressed on HEK-Blue …; experiment: cell-based or functional assay; remark: listed apart in the source
[10] = molecular target: T3, canine IL-31RA expressed on HEK-Blue …; experiment: cell-based or functional assay; remark: listed apart in the source
[11] = molecular target: T3, canine IL-31RA expressed on HEK-Blue …; experiment: cell-based or functional assay; remark: listed apart in the source
[12] = molecular target: T3, canine IL-31RA expressed on HEK-Blue …; experiment: cell-based or functional assay; remark: listed apart in the source
[13] = molecular target: T3, canine IL-31RA expressed on HEK-Blue …; experiment: cell-based or functional assay; remark: listed apart in the source
[14] = molecular target: T1, human IL31RA protein (Acrobiosystem, …); experiment: Octet K2 BLI, receptor loaded on protein A tips, antibody in solution
Description: (§1) Binding of the purified antibodies to cECD-IL-31RA was analyzed using the Octet system (BLI technology, Fortebio). Octet K2 instrument was used to measure the binding kinetics of either canine IL-31RA (cIL-31RA) or human IL31RA (hIL-31RA) to 8DE and 3F1 antibodies. cIL-31RA (see example 1) or hIL31R proteins (Acrobiosystem, Cat:ILA-H5256) were attached to the surface of the protein A (fortéBio, Part No: 18-5013) sensor tip (5 ug/ml, 200 ul, 120 sec). […] Then, the antibodies were allowed to dissociate for 600 seconds. All the dilutions were made in PBS-Tween (0.05%) solution. The measurement was corrected for baseline drift by subtracting a control sensor exposed to running buffer (PBS-Tween, 0.05%) only. Data analysis and curve fitting were carried out using the own software (local fitting, 1:1 Langmuir model) of the device.

[15] = molecular target: T2, Recombinant extra cellular domain of …; experiment: Octet K2 BLI, cIL-31RA loaded on protein A tips, antibody at 15.6, 3.91, 0.98 nM, 1:1 Langmuir local fit
Description: as §1

Row | Mean IC50 (nM) (n = 3), HEK-Blue cell-based SEAP assay [1] | IC50 ratio (IC50 candidate/IC50 VTQ2101) [2] [ratio] | IC50 ratio (IC50 candidate/IC50 VTQ2101) [3] [ratio] | IC50 ratio (IC50 candidate/IC50 VTQ2101) [4] [ratio] | IC50 (read off the curve); STAT3-SEAP reporter, canine IL-31 stimulation [5] [nM] | IC50 (read off the curve); STAT3-SEAP reporter, canine IL-31 stimulation [6] [nM] | IC50 (read off the curve); STAT3-SEAP reporter, canine IL-31 stimulation [7] [nM] | IC50 (read off the curve); STAT3-SEAP reporter, canine IL-31 stimulation [8] [nM] | IC50 (read off the curve); STAT3-SEAP reporter, canine IL-31 stimulation [9] [nM] | IC50 (read off the curve); STAT3-SEAP reporter, canine IL-31 stimulation [10] [nM] | IC50 (read off the curve); STAT3-SEAP reporter, canine IL-31 stimulation [11] [nM] | IC50 (read off the curve); STAT3-SEAP reporter, canine IL-31 stimulation [12] [nM] | IC50 (read off the curve); STAT3-SEAP reporter, canine IL-31 stimulation [13] [nM] | binding result [14] | Kd [15] [pM] | Binder
1 | 0.33 | 1 | 1 | 1 | ~0.3 | ~0.05 | ~1 | ~1 | ~0.6 | ~0.6 | ~0.6 | ~0.6 | – | – | – | 8D3-VHL/8D3-VLH caninized antibody (VTQ2101) (antibody, V domains shown) VH: EVTLQESGPGLVKPSQTLSLTCVASGFSIKSSFIHWLRQRPGRGLEWIGRIDPAFGATEYNPAFQGRFSITADTAKNQASLQLSSMTTEDSAVYYCARYHYAASHFDAWGQGTLVTVSS VL: RIVMTQSPGSLAGSVGESVSINCKSSQSVTNDLTWYQQKPGEAPKVLITYASQRYTGVPARFSGSGYGTDFTLTINNLQAEDVGDYFCQQDYASPFTFGQGTKLEIK
2 | 0.43 | – | – | – | – | – | – | – | – | – | – | – | ~0.5 | no binding | < 1 | 8D3 chimeric canine IgGB antibody (antibody, V domains shown, also called chimeric 8D3) VH: EVQLQQSGAELVKPGASVKLSCTASGFNIKDSFIHWLKQRPEQGLEWIGRIDPANGNTEYDPNFQGKDTITADTSSNTAYLQVSSLTSEDTAVYYCARYYYGNSHFDCWGQGTTLTVSS VL: RIVMNQTPKFLPISAGDRVIITCKASQSVTNDVTWYQQKPGQSPKVLIHYASNRYTGVPDRFTGSGYGTDFTFTISTVQAEDLAVYFCQQDYSSPFTFGSGTKLEIK
3 | – | – | – | 1.3 | – | – | – | – | – | – | – | ~0.8 | – | – | – | scFab-Fc-VTQ2101 (scFab-VTQ2101-HLλcap-GS18-Canine IgG2B-LALAPG-Fc) (Fc fusion) RIVMTQSPGSLAGSVGESVSINCKSSQSVTNDLTWYQQKPGEAPKVLITYASQRYTGVPARFSGSGYGTDFTLTINNLQAEDVGDYFCQQDYASPFTFGQGTKLEIKRNDAQPAVYLFQPSPDQLHTGSASVVCLLNSFYPKDINVKWKVDGVIQDTGIQESVTEQDKDSTYSLSSTLTMSSTEYLSHELYSCEITHKSLPSTLIKSFQRSECGGSSGSGSGSTGTSSSGTGTSAGTTGTSASTSGSGSGGGGGSGGGGSAGGEVTLQESGPGLVKPSQTLSLTCVASGFSIKSSFIHWLRQRPGRGLEWIGRIDPAFGATEYNPAFQGRFSITADTAKNQASLQLSSMTTEDSAVYYCARYHYAASHFDAWGQGTLVTVSSASTTAPSVFPLAPSCGSTSGSTVALACLVSGYFPEPVTVSWNSGSLTSGVHTFPSVLQSSGLYSLSSMVTVPSSRWPSETFTCNVAHPASKTKVDKPVPKRENGRVPRPPDCPKCPAPEAAGGPSVFIFPPKPKDTLLIARTPEVTCVVVDLDPEDPEVQISWFVDGKQMQTAKTQPREEQFNGTYRVVSVLPIGHQDWLKGKQFTCKVNNKALGSPIERTISKARGQAHQPSVYVLPPSREELSKNTVSLTCLIKDFFPPDIDVEWQSNGQQEPESKYRTTPPQLDEDGSYFLYSKLSVDKSRWQRGDTFICAVMHEALHNHYTQESLSHSPG
